# Assay results published in ChEMBL document CHEMBL2311350, “Discovery of a novel phenylethyl benzamide glucokinase activator for the treatment of type 2 diabetes mellitus” (Bioorg Med Chem Lett, 2013).
# B1: Hexokinase-4 (Homo sapiens), P35557 (protein)
# chain: MLDDRARMEAAKKEKVEQILAEFQLQEEDLKKVMRRMQKEMDRGLRLETHEEASVKMLPTYVRSTPEGSEVGDFLSLDLGGTNFRVMLVKVGEGEEGQWSVKTKHQMYSIPEDAMTGTAEMLFDYISECISDFLDKHQMKHKKLPLGFTFSFPVRHEDIDKGILLNWTKGFKASGAEGNNVVGLLRDAIKRRGDFEMDVVAMVNDTVATMISCYYEDHQCEVGMIVGTGCNACYMEEMQNVELVEGDEGRMCVNTEWGAFGDSGELDEFLLEYDRLVDESSANPGQQLYEKLIGGKYMGELVRLVLLRLVDENLLFHGEASEQLRTRGAFETRFVSQVESDTGDRKQIYNILSTLGLRPSTTDCDIVRRACESVSTRAAHMCSAGLAGVINRMRESRSEDVMRITVGVDGSVYKLHPSFKERFHASVRRLTPSCEITFIESEEGSGRGAALVSAVACKKACMLGQ
# Molecular target: Glucokinase (Homo sapiens)
# Test: Induction of human pancreatic glucokinase activity assessed as maximal reaction rate at 5 mM glucose concentration
protein,measurement,value
B1,Vmax,130%
